Molecular target: the molecule itself
Test: native MS

B1: whole intracellular region of rat PTPRZ (rat PTPRZ-ICR) (domain or fragment)
chain: not shown
In the case of B1, the Kd is reported as ~7 µM and the “stoichiometry N” value is reported as 2.
